Experimental findings from article PMC2990581, “Molecular imaging of glioblastoma multiforme using anti-insulin-like growth factor-binding protein-7 single-domain antibodies” (British Journal of Cancer, 2010) are described below.

The target in experiment [1] is T1, IGFBP7 in human glioblastoma multiforme tissue (Homo sapiens, UniProt Q16270).
T1 construct: source: endogenous, frozen human GBM tissue sections
In words: immunostaining of cells or tissue; frozen human or mouse brain tumour sections fixed in methanol; sdAb 4.43 (1:100 of 1 mg/ml) for 3 h at RT; detected with anti-c-myc antibody and alexa 647 secondary. Particulars: one partner purified.

Experiment [2] concerns the target T2, recombinant human insulin-like growth factor-binding protein 7 (IGFBP7), R&D Systems (human) (UniProt Q16270).
T2 sequence: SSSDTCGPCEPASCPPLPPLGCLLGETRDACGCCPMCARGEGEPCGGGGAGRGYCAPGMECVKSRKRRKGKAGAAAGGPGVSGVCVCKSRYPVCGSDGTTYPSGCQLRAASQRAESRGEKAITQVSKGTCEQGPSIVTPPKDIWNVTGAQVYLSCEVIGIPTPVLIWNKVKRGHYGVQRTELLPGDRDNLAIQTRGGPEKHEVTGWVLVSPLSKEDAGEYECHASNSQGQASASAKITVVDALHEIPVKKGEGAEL
In words: SPR; Biacore 3000; ~1400 RU recombinant human IGFBP7 amine-coupled on a CM5 chip, ovalbumin as reference; sdAb flowed at 25-200 nM; 25°C; 10 mM HEPES pH 7.4, 150 mM NaCl, 3 mM EDTA, 0.005% P20; 40 μl/min; 1:1 kinetic fit of the 25 nM data, steady-state affinity model and Scatchard plot of the equilibrium data. (Surface plasmon resonance follows binding to a sensor surface in real time, without labels.)

The target in experiment [3] is IGFBP7 in mouse vessels of orthotopic U87MG.EGFRvIII glioblastoma (Mus musculus, UniProt Q61581). In words: cell-based or functional assay.
Sequence of IGFBP7 in mouse vessels of orthotopic U87MG.EGFRvIII glioblastoma (Q61581 26-281): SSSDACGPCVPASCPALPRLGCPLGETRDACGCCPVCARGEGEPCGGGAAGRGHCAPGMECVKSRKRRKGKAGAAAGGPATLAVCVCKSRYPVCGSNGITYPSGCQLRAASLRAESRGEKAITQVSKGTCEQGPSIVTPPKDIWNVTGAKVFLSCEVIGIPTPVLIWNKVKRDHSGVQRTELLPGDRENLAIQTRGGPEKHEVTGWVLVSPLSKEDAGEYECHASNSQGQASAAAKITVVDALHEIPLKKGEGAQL

B1: anti-IGFBP7 single-domain antibody (sdAb) 4.43 (VHH)
VHH: QVKLEESGGGLVQAGGSLRLSCAASGRTSRRYAMGWFRQAPGKEREFVAGISRSGDGTHYAYSVKGRFTISRDNAANTVELQMNSLKPEDTAVYFCAAARTAFYYYGNDYNYWGQGTQVTVSS
notes: VHH isolated from an immune llama phage display library; For in vivo imaging the same sdAb was labelled with Cy5.5 succinimidyl ester (dye/antibody ratio of one) or conjugated to PEGylated Fe3O4 nanoparticles; also called anti-IGFBP7 sdAb; source: expressed periplasmically (vector pSJF2), purified by IMAC; not shown: c-Myc, C-terminal, kept
On to B1, for which the binding result in experiment [1] is “binds”. Further, in experiment [2], the Kd (in general, a measure of binding affinity in units of concentration) was determined as 0.02 µM and the koff (usually the rate constant with which the complex falls apart) worked out at 0.0013 s⁻¹. In addition, the “brain tumour fluorescence signal by in vivo optical imaging 24 h after i.v. injection of 50 μg anti-IGFBP7 sdAb-Cy5.5, against negative control (NC) sdAb-Cy5.5” value in experiment [3] turned out to be 6 fold.
